Each sequence was assayed on MS2 coat protein (assay: apparent KD of MS2 coat protein; higher = weaker reporter binding). Conditions: Eterna round: R107; input ligand: arginine 13.2 mM.
Procedure, shortened: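 Apparent KD was obtained for each design as the median of normalised binding-curve fits over its clusters. RNA switches transcribed on-chip from Illumina sequencing clusters were titrated with SNAP-549-labelled MS2 coat protein (twofold steps, 0.7 or 1.5 nM to 3 µM) in 100 mM Tris-HCl pH 7.5, 80 mM KCl, 4 mM MgCl2, without or with constant ligand.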
“AAUAGUCCUCGACAUGAGGAUCACCCAUGUCGAGGACCGGUACGGCCGCCACUCGACAUGAGGAUCACCCAUGUUGAGUGAUAAA [prototype 1]” was tested, and the “apparent KD of MS2 coat protein” value was 7.58 nM.
For “GUCCUCAUGACGGCCGCCACUAAACAUGAGGAUCACCCAUGUAAUGAUCCAUUAAAUGAUAAUAGUAGGACCGGGUCAAAAUAAA [Same State Typptophan B GF11]”, the “apparent KD of MS2 coat protein” value was 135 nM.
“CGCUACGUAACUGAUACCAGUGUACUGACAUGAGGAUCACCCAUGUUGGGUUUUGUUGUACACCCUUGGCAGCAGAAUCGUAGCG [AstrosExyTheB#13]” was tested, and the “apparent KD of MS2 coat protein” value was 58.7 nM.
“UGGUUUGUGAUGGAUACCAGCAGAGAAAACGUUUAUCCUAACAUGAGGAUCACCCAUGUAUGCCCUUGGCAGCUGUUGUGGGCUG [8.T]” was tested, and the “apparent KD of MS2 coat protein” value was 31.9 nM.
For “AUAAGUAAUGUUUCGUGUUUUAUUACAGAUACCAGACUAUACGUUGUCCCUUGGCAGCUGGAUUACAUGAGGAUCACCCAUGUUG [JR_ExcTheophyA_Sub003]”, the “apparent KD of MS2 coat protein” value was 17.6 nM.
In the case of “UUCUACGACGAUCUGGGAAAACCAGAUCGACGAGGACCGGUACGGCCGCCACUCGUGUUUCUUUAACAUGAGGAUCACCCAUGUA [#12 Tryptophan A Same State]”, the “apparent KD of MS2 coat protein” value is reported as 23.6 nM.
“GGUCUCUGGAGCGAUACCAGCUUGAUCGUACUGGCCUGGUACAUGAGGAUCACCCAUGUAAGCCCUUGGCAGCGCUCCAGAGACC [#1 Exclusion - Theophylline B Attempt #8 (HarryS)]” was tested, and the “apparent KD of MS2 coat protein” value was 11.8 nM.
“UUUGAUAGGACAGAUACCAGCGUGUUGUUGAACAUGAGGAUCACCCAUGUAGUGAUCAGGCGCCCUUGGCAGCUGGUUUGUUAGG [7.N]” was tested, and the “apparent KD of MS2 coat protein” value was 265 nM.
With “ACGCCCAGGUAGGCUUAAUGGGAAAUGGAAGGAGCGCUGAUGCAAGCAGGUAGGUCGCCAACGAACAUGAGGAUCACCCAUGUAA [Same State - Arginine A (Freestyle 2)]” the “apparent KD of MS2 coat protein” value was 16.3 nM.
“GCUGCAGCUACGGCCGCCACUGUUACGUGAGACAUGAGGAUCACCCAUGUUGAUGUUUUACAGAAUAGGACCGGGUAGUUGUAGU [E 1.1]” was tested, and the “apparent KD of MS2 coat protein” value was 8.84 nM.
With “UACAUGAGGAUCACCCAUGUAUGAAUGGAUACCAGAUAAAAUAAGGUCCCUUGGCAGCUAGUGAAUCGAGGGUGGGUAUCAUGAU [#13 Exclusion-TheophyllineA]” the “apparent KD of MS2 coat protein” value was 10.6 nM.
With “ACGGAGAUGUCGGCCGCCACUGAACUCAUGUUCAACAUGAGGAUCACCCAUGUACCUUAGUUUAUCAGGACCGGGACAUAUACGA [JR_ExcTryptoB_Sub003]” the “apparent KD of MS2 coat protein” value was 79.7 nM.
With “GGGUUACUCUAUGAUACCAGUUCCAUGCCGAAACCUGUGUACAUGAGGAUCACCCAUGUGAACCCUUGGCAGCAUUAAUCAACUG [theeternabot_exclusion_MS2_Theo_B_35]” the “apparent KD of MS2 coat protein” value was 51.5 nM.
In the case of “UGUACCAUGUCGGCCGCCACUCAUGAUAAACAUGAGGAUCACCCAUGUGGCGUCAAAGACGCUAUGAGGACCGGGACAUGGUACU [TryBS Zipper 3 #StaticStem #Zipper]”, the “apparent KD of MS2 coat protein” value is reported as 15.3 nM.
With “AACACGGUGAUGGUAGCCGGACGCUAGGUACGAGGACCGGUACGGCCGCCACUCGAAGUCCUACGACAUGAGGAUCACCCAUGUA [Same State Trp A GF14]” the “apparent KD of MS2 coat protein” value was 46.2 nM.
In the case of “GCAUCCUAGUCGGCCGCCACUGGAUGUACCCAGUGCUGGUACAAACAUGAGGAUCACCCAUGUACCAGGACCGGGACUAGGAUGC [(Trp1)-(MT2)''-(T1)'-(MT2)'-(Ms2)-(Trp2)_Design3]”, the “apparent KD of MS2 coat protein” value is reported as 23.6 nM.
“AAUAGACAUGAGGAUCACCCAUGUAUGGAAGGAGCGGUGAAUAAACCAGGUAGGUCGCCAGUGUGAGGGUCAUCUAUGUAAUAAA [#18 Exclusion - Arginine A]” was tested, and the “apparent KD of MS2 coat protein” value was 37.6 nM.
In the case of “GAUGAUAUUGCAGAUACCAGACACAUGAGGAUCACCCAUGUCGCUGAGAUGCUGGAUCGUGUCCCUUGGCAGCUGCGAUAUCAUC [Brazil]”, the “apparent KD of MS2 coat protein” value is reported as 38.7 nM.
With “CAUCGUCGGUCGGCCGCCACUACUGGACAUGAGGAUCACCCAUGUGGCCCGCUGUAUUAACCGCGUAGGACCGGGACGGGAGGUA [theeternabot_exclusion_MS2_Trp_B_4]” the “apparent KD of MS2 coat protein” value was 24 nM.
In the case of “AUCAUAAUAGACUCGUUUGAUUAUAUGGAACGAGGACCGGUACGGCCGCCACUCGUGAUUUACAUGAGGAUCACCCAUGUUAGCA [JR_ExcTryptoA_Sub005]”, the “apparent KD of MS2 coat protein” value is reported as 17 nM.
For “AUGCACAUCAGAAGGAGCGUCUUGGCCAAUCUAGGCCAACAUGAGGAUCACCCAUGUGCAGGACAGGUAGGUCGCUGAUGUGUAG [Arg B SS t8]”, the “apparent KD of MS2 coat protein” value was 11.6 nM.
With “AUAUAUACAUGAGGAUCACCCAUGUUAUUUCGAGGACCGGUACGGCCGCCACUCGAUAGAGUAGAAGUAACAUUUGUUAGAUGAU [JR_SSTryptoA_Sub012]” the “apparent KD of MS2 coat protein” value was 23.9 nM.
For “AUACAUGAGGAUCACCCAUGUUAUAGUGAAGGAGCGACAUUUAUGUCAGGUAGGUCGCACUAAAGUUUAAUAAUUCUUUGAUCUU [JR_SSArginiA_Sub011]”, the “apparent KD of MS2 coat protein” value was 18.6 nM.
With “GGCUGUUGCUCUUUGAAGCGGCAGCGUGAUACCAGAUGUAAGAGCGUCCCUUGGCAGCACGUUUACAUGAGGAUCACCCAUGUCA [Raisquin]” the “apparent KD of MS2 coat protein” value was 70.6 nM.
With “AUGUCGUUGAAUAUAGCGGCUUGGAGUGAUACCAGUAUGAUCCAAUACCCUUGGCAGCAUAACAUGAGGAUCACCCAUGUUCCAG [SSTheo A #25]” the “apparent KD of MS2 coat protein” value was 19.5 nM.
For “ACGCUGAUUGAUUACAAUCAGCGAAAAGAUACCAGCCUGGAUAUCGGCCCUUGGCAGCUUAAACCUGAGGAUCACCCUGGUAAAA [TheoAS 13 #MS2Right #BothOrNeither #AlternativeMS2]”, the “apparent KD of MS2 coat protein” value was 100 nM.
For “GACUGUAAAAUAUGACUCAGGGUGACGUCCCGAGGACCGGUACGGCCGCCACUCGAGCGAAUACAUGAGGAUCACCCAUGUAGUC [theeternabot_exclusion_MS2_Trp_A_15]”, the “apparent KD of MS2 coat protein” value was 20.5 nM.
In the case of “CUAUAUGGAAACAUAUAGACGCAAAAGCGACGAGGACCGGUACGGCCGCCACUCGAAGAGUGGUGGACAUGAGGAUCACCCAUGU [Design 3 MOD]”, the “apparent KD of MS2 coat protein” value is reported as 38.3 nM.
With “CAAUGCAGGUCGGCCGCCACUACACACAUGAGGAUCACCCAUGUAGUUACUGGGUGAAGUGGCAGUAGGACCGGGACCUGCAUAC [Brourdmod03]” the “apparent KD of MS2 coat protein” value was 246 nM.
“UGUAUGGACUGAAGGAGCGGGUAAUAAAUCUGAGGAUCACCCAGGUAAUAGGCGAAAGCCACCCAGGUAGGUCGCAGUCCAUACU” was tested, and the “apparent KD of MS2 coat protein” value was 17.7 nM.
In the case of “AAUAACAUGAGGAUCACCCAUGUAACCGAAGGAGCGGCAAUAAAGCCAGGUAGGUCGCGGAAUAACAUGAGGAUCACCCAUGUAA [Exclusion Arginine A]”, the “apparent KD of MS2 coat protein” value is reported as 55.5 nM.
In the case of “GCACCAGGUACGGAUACCAGCUGCCACAGUUACAUGAGGAUCACCCAUGUGAUAAAGUGUAGCCCUUGGCAGCUGUACCUGGUGC [SSThB NP+V+V2 #6 +-Same Structure]”, the “apparent KD of MS2 coat protein” value is reported as 93.2 nM.
In the case of “AUAACGAGUGGUGGAAUACAUGGGUGAUAACGAGGACCGGUACGGCCGCCACUCGAUAACAUGAGGAUCACCCAUGUAAUAAUAA [|T'-M'-Trp-Ms2|_Design18]”, the “apparent KD of MS2 coat protein” value is reported as 57.3 nM.
“UUUCAAGUAUCGGCCGCCACUCUAGUUGGUUGUUCAAUCCGAUUACAUGAGGAUCACCCAUGUCUGAGGACCGGGAUAAAGUAAU [theeternabot_sameState_MS2_Trp_B_25]” was tested, and the “apparent KD of MS2 coat protein” value was 20.4 nM.

Source: the supplement of paper PMC9170038
